Assay results reported in doi:10.1101/2025.02.10.637573 (bioRxiv, 2025).

Key:
[1] = target: Vps74 (endogenous, wild-type yeast cells) (Saccharomyces cerevisiae (strain ATCC …, UniProt Q06385)); test: co-IP
Twin-Strep-Vps74 = Twin-Strep-Vps74 (yeast, UniProt Q06385); test: pull-down
[2] = target: Vps74 (bacterially expressed, as used in the in vitro mixing assays) (yeast, UniProt Q06385); test: pull-down
Sequence of Vps74 (bacterially expressed, as used in the in vitro mixing assays) (Q06385 whole entry): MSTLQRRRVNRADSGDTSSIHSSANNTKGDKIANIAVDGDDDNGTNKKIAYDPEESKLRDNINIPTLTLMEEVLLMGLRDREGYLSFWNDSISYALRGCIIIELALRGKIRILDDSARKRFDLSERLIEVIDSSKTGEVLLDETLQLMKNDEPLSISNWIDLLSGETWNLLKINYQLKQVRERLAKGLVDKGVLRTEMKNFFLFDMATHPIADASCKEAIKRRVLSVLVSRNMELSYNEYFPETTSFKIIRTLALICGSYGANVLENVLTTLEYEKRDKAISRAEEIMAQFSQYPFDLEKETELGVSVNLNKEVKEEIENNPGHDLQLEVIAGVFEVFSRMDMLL

Sequence of Vps74 (endogenous, wild-type yeast cells) (Saccharomyces cerevisiae (Q06385 whole entry): as above
Sequence of Twin-Strep-Vps74 (Q06385 whole entry): as above

Row | binding result [1] | binding result (Twin-Strep-Vps74) | binding result [2] | Binder
1 | binds | – | – | Vps74InNb#4-HA (expressed in the cytoplasm of yeast cells) (VHH) VHH: QVQLQESGGGLVQAGGSLRLSCAASGSISTIVGMGWYRQAPGKERELVAAITGGSSTNYADSVKGRFTISRDNAKNTVYLQMNSLKPEDTAVYYCAAVSYEYRSSPYPETYWGQGTQVTVSS
2 | – | binds | binds | Vps74InNb#4 (purified from the periplasm of E. coli) (VHH) VHH: QVQLQESGGGLVQAGGSLRLSCAASGSISTIVGMGWYRQAPGKERELVAAITGGSSTNYADSVKGRFTISRDNAKNTVYLQMNSLKPEDTAVYYCAAVSYEYRSSPYPETYWGQGTQVTVSS
